The target of test [1] is T1, SRC-3 (human, UniProt Q9Y6Q9 2-1424, limits assumed).
T1 construct: Positive clone of the yeast two-hybrid screen
The experiment in a line: yeast two-hybrid screen, human fetal brain cDNA library. How it is done: (§1) A total of 2×10⁷ independent clones were screened by growth in deficient medium and X-gal staining. The positive clones were subsequently retested in fresh yeast cells, and the identities of prey were determined with interaction sequence tags (ISTs) obtained by DNA sequencing. The reading frame was verified.

Test [2] addresses T2, DEK (human, UniProt P35659 2-375, limits assumed).
T2 construct: Positive clone of the yeast two-hybrid screen
T2 sequence (looked up): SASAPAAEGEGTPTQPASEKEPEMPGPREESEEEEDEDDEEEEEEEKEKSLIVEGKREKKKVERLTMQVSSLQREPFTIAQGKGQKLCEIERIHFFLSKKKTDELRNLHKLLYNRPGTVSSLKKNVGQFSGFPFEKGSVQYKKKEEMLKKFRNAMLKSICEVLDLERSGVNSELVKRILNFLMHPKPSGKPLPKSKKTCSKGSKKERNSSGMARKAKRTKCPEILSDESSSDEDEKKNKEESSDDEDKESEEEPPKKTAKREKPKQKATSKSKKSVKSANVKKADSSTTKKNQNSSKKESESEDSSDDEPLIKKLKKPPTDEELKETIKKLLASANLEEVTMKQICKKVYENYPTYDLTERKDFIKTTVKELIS
The test is described as above. How it is done: as §1

Test [3] concerns the target T3, BRD3 (human, UniProt Q15059 1-726).
T3 construct: One entry covers endogenous and FLAG-tagged full-length BRD3; also called FLAG-BRD3; Flag-BRD3
The experiment in a line: co-IP, ectopic in 293T and endogenous in LNCaP cells. The protocol:
(§2) To immunoprecipitate the ectopically expressed FLAG-tagged proteins, transfected cells were lysed 24 hours post-transfection in BC100 buffer. The whole-cell lysates were immunoprecipitated with the monoclonal anti-FLAG antibody-conjugated M2 agarose beads (Sigma-Aldrich) at 4° C. overnight. After three washes with lysis buffer, followed by two washes with BC100 buffer, the bound proteins were eluted using FLAG-Peptide (Sigma-Aldrich) prepared in BC100 for 3 hours at 4° C. The eluted protein sample was resolved by SDS-PAGE. To immunoprecipitate the endogenous proteins, cells were lysed with 1× cell lysis buffer (Cell Signaling Technology), and the lysate was centrifuged. The supernatant was precleared with protein A/G beads (Sigma-Aldrich) and incubated with the indicated antibody and protein A/G beads at 4° C. overnight. Beads were washed five times with lysis buffer and resuspended in sample buffer and analyzed by SDS-PAGE.

The target of test [4] is T4, BRD2 (human, UniProt P25440 1-801).
T4 construct: One entry covers endogenous and FLAG-tagged full-length BRD2; also called FLAG-BRD2; Flag-BRD2
The experiment in a line: figure legend title; yeast two-hybrid and co-IP. How it is done:
as §1, §2

The target in test [5] is T5, BRD4 SBC motif-deleted mutant (human, UniProt O60885 1-1362, limits assumed).
T5 construct: The deleted residues are not numbered in the text; also called FLAG-BRD4 mutant; not shown: FLAG tag
The experiment in a line: co-IP (anti-FLAG) in 293T cells.

In test [6] the target is T6, BRD2 SBC motif-deleted mutant (human, UniProt P25440 1-801, limits assumed).
T6 construct: The deleted residues are not numbered in the text; also called FLAG-BRD2 mutant; not shown: FLAG tag
The experiment in a line: co-IP (anti-FLAG) in 293T cells.

Test [7] addresses T7, BRD3 SBC motif-deleted mutant (human, UniProt Q15059 1-726, limits assumed).
T7 construct: The deleted residues are not numbered in the text; also called FLAG-BRD3 mutant; not shown: FLAG tag
The experiment in a line: co-IP (anti-FLAG) in 293T cells.

Test [8] addresses T4, BRD2. The experiment in a line: co-IP of endogenous proteins in PC-3 cells. How it is done: as §2
Test [9] deals with T3, BRD3. The experiment in a line: co-IP of endogenous proteins in PC-3 cells. How it is done: as §2
The target of test [10] is T8, BRD4 (human, UniProt O60885 1-1362).
T8 construct: One entry covers endogenous, Flag-tagged and HA-tagged full-length BRD4; also called FLAG-BRD4; Flag-BRD4
The experiment in a line: co-IP from 293T cells transfected with Flag-tagged USPs (DUB3 and other DUBs) and HA-BRD4. The protocol: as §2

Test [11] addresses T8, BRD4. The experiment in a line: GST pull-down of Flag-BRD4 from PC-3 cells.

B1: SPOP (speckle-type POZ polypeptide), wild-type (other, human, UniProt O43791 1-374, looked up)
chain: MSRVPSPPPPAEMSSGPVAESWCYTQIKVVKFSYMWTINNFSFCREEMGEVIKSSTFSSGANDKLKWCLRVNPKGLDEESKDYLSLYLLLVSCPKSEVRAKFKFSILNAKGEETKAMESQRAYRFVQGKDWGFKKFIRRDFLLDEANGLLPDDKLTLFCEVSVVQDSVNISGQNTMNMVKVPECRLADELGGLWENSRFTDCCLCVAGQEFQAHKAILAARSPVFSAMFEHEMEESKKNRVEINDVEPEVFKEMMCFIYTGKAPNLDKMADDLLAAADKYALERLKVMCEDALCSNLSVENAAEILILADLHSADQLKTQAVDFINYHASDVLETSGWKSMVVSHPHLVAEAYRSLASAQCPFLGPPRKRLKQS
notes: also called SPOP-WT; wild-type SPOP
In the case of B1, the binding result in test [1] is given as “binds”; in [2] it was “binds”; in [3], “binds”; in test [4], “binds”; in test [5] it was “no binding”; in [6], “no binding”. Besides, in test [7], the binding result is recorded as “no binding”.

B2: DUB3 (enzyme, human, UniProt Q6R6M4 1-530, looked up)
chain: MEDDSLYLGGEWQFNHFSKLTSSRPDAAFAEIQRTSLPEKSPLSSEARVDLCDDLAPVARQLAPRKKLPLSSRRPAAVGAGLQNMGNTCYENASLQCLTYTPPLANYMLSREHSQTCQRPKCCMLCTMQAHITWALHSPGHVIQPSQALAAGFHRGKQEDAHEFLMFTVDAMKKACLPGHKQVDHHSKDTTLIHQIFGGCWRSQIKCLHCHGISDTFDPYLDIALDIQAAQSVKQALEQLVKPEELNGENAYHCGLCLQRAPASKTLTLHTSAKVLILVLKRFSDVTGNKLAKNVQYPECLDMQPYMSQQNTGPLVYVLYAVLVHAGWSCHDGHYFSYVKAQEGQWYKMDDAKVTACSITSVLSQQAYVLFYIQKSEWERHSESVSRGREPRALGAEDTDRRATQGELKRDHPCLQAPELDERLVERATQESTLDHWKFPQEQNKTKPEFNVRKVEGTLPPNVLVIHQSKYKCGMKNHHPEQQSSLLNLSSTTRTDQESVNTGTLASLQGRTRRSKGKNKHSKRALLVCQ
notes: One entry covers endogenous, HA-tagged and Flag-tagged full-length DUB3; also called USP17L2; USP17
With B2, the binding result in [8] was “no binding”; in test [9] it was “no binding”; in test [10], “binds”.

B3: GST-DUB3 C-terminal fragment (other, UniProt Q6R6M4 399-530, looked up)
chain: TDRRATQGELKRDHPCLQAPELDERLVERATQESTLDHWKFPQEQNKTKPEFNVRKVEGTLPPNVLVIHQSKYKCGMKNHHPEQQSSLLNLSSTTRTDQESVNTGTLASLQGRTRRSKGKNKHSKRALLVCQ
notes: also called C-terminal fragment of DUB3; not shown: glutathione S-transferase (GST) tag
On to B3, for which the binding result in test [11] is “no binding”.

The values are drawn from patent US20220016130A1 (MAYO FOUNDATION FOR MEDICAL EDUCATION AND RESEARCH, published 2022).
